# Measured values reported in patent US20210309732A1 (ELIXIRON IMMUNOTHERAPEUTICS HONG KONG, published 2021).
# Substitutions are numbered along the chain they refer to. Names may count otherwise.
# B1: 1D2 SDR mutant HK32H (antibody, IgG1, V domains shown)
# VH: QVQLVQSGAEVKKPGASVKVSCEASGYTFTDHYLHWVRQAPGQGLEWMAWINPKSGGTFYAQNFKGRVTVTRDTSINTAYLELTSLRLDDTSTYYCARGRDYYDQGAADLWGQGTMVTVSS
# VL: DIQLTQSPSSLSASVGDRVTITCRASQGINSVLAWYQQKPGKAPKLLLYAASKLESGVPSRFSGSGSGTDYTLTISSLQPEDFGTYYCQQYYSPVRTFGQGTKVEIKR
# notes: also called X2 H
# B2: 1D2 SDR mutant HK54S (antibody, IgG1, V domains shown)
# VH: B1 VH with H32K, K54S
# VL: B1 VL
# notes: also called X3 S
# B3: 1D2 SDR mutant HQ105T (antibody, IgG1, V domains shown)
# VH: B1 VH with H32K, Q105T
# VL: B1 VL
# notes: also called X7 T
# B4: 1D2 SDR mutant HQ105G (antibody, IgG1, V domains shown)
# VH: B1 VH with H32K, Q105G
# VL: B1 VL
# notes: also called X7 G
# B5: 1D2 SDR mutant HK54F (antibody, IgG1, V domains shown)
# VH: B1 VH with H32K, K54F
# VL: B1 VL
# notes: also called X3 F
# B6: 1D2 SDR mutant HQ105W (antibody, IgG1, V domains shown)
# VH: B1 VH with H32K, Q105W
# VL: B1 VL
# notes: also called X7 W
# B7: 1D2 SDR mutant HK54Q (antibody, IgG1, V domains shown)
# VH: B1 VH with H32K, K54Q
# VL: B1 VL
# notes: also called X3 Q
# B8: 1D2 SDR mutant HK54H (antibody, IgG1, V domains shown)
# VH: B1 VH with H32K, K54H
# VL: B1 VL
# notes: also called X3 H
# B9: 1D2 SDR mutant HR100A (antibody, IgG1, V domains shown)
# VH: B1 VH with H32K, R100A
# VL: B1 VL
# notes: also called X4 A
# B10: 1D2 SDR mutant HQ105M (antibody, IgG1, V domains shown)
# VH: B1 VH with H32K, Q105M
# VL: B1 VL
# notes: also called X7 M
# B11: 1D2 SDR mutant HQ105V (antibody, IgG1, V domains shown)
# VH: B1 VH with H32K, Q105V
# VL: B1 VL
# notes: also called X7 V
# B12: 1D2 SDR mutant HK54I (antibody, IgG1, V domains shown)
# VH: B1 VH with H32K, K54I
# VL: B1 VL
# notes: also called X3 I
# B13: 1D2 SDR mutant HK32S (antibody, IgG1, V domains shown)
# VH: B1 VH with H32S
# VL: B1 VL
# notes: also called X2 S
# B14: 1D2 SDR mutant HK54T (antibody, IgG1, V domains shown)
# VH: B1 VH with H32K, K54T
# VL: B1 VL
# notes: also called X3 T
# B15: 1D2 SDR mutant HK54A (antibody, IgG1, V domains shown)
# VH: B1 VH with H32K, K54A
# VL: B1 VL
# notes: also called X3 A
# B16: 1D2 SDR mutant HK32N (antibody, IgG1, V domains shown)
# VH: B1 VH with H32N
# VL: B1 VL
# notes: also called X2 N
# B17: 1D2 SDR mutant HK54E (antibody, IgG1, V domains shown)
# VH: B1 VH with H32K, K54E
# VL: B1 VL
# notes: also called X3 E
# B18: 1D2 SDR mutant HK32T (antibody, IgG1, V domains shown)
# VH: B1 VH with H32T
# VL: B1 VL
# notes: also called X2 T
# B19: 1D2 SDR mutant HK54N (antibody, IgG1, V domains shown)
# VH: B1 VH with H32K, K54N
# VL: B1 VL
# notes: also called X3 N
# B20: 1D2 SDR mutant HK54R (antibody, IgG1, V domains shown)
# VH: B1 VH with H32K, K54R
# VL: B1 VL
# notes: also called X3 R
# B21: 1D2 SDR mutant HK32L (antibody, IgG1, V domains shown)
# VH: B1 VH with H32L
# VL: B1 VL
# notes: also called X2 L
# B22: 1D2 SDR mutant HQ105S (antibody, IgG1, V domains shown)
# VH: B1 VH with H32K, Q105S
# VL: B1 VL
# notes: also called X7 S
# B23: 1D2 SDR mutant HK32P (antibody, IgG1, V domains shown)
# VH: B1 VH with H32P
# VL: B1 VL
# notes: also called X2 P
# B24: 1D2 SDR mutant HK54C (antibody, IgG1, V domains shown)
# VH: B1 VH with H32K, K54C
# VL: B1 VL
# notes: also called X3 C
# B25: 1D2 SDR mutant HQ105E (antibody, IgG1, V domains shown)
# VH: B1 VH with H32K, Q105E
# VL: B1 VL
# notes: also called X7 E
# B26: 1D2 SDR mutant HK32V (antibody, IgG1, V domains shown)
# VH: B1 VH with H32V
# VL: B1 VL
# notes: also called X2 V
# B27: 1D2 SDR mutant HK32R (antibody, V domains shown)
# VH: B1 VH with H32R
# VL: B1 VL
# notes: not the clone labelled 32R, which is light chain V32R; also called X2 R
# B28: 1D2 SDR mutant HK32Q (antibody, IgG1, V domains shown)
# VH: B1 VH with H32Q
# VL: B1 VL
# notes: also called X2 Q
# B29: 1D2 SDR mutant HQ105L (antibody, IgG1, V domains shown)
# VH: B1 VH with H32K, Q105L
# VL: B1 VL
# notes: also called X7 L
# B30: 1D2 SDR mutant HK54V (antibody, IgG1, V domains shown)
# VH: B1 VH with H32K, K54V
# VL: B1 VL
# notes: also called X3 V
# B31: 1D2 SDR mutant HK54W (antibody, IgG1, V domains shown)
# VH: B1 VH with H32K, K54W
# VL: B1 VL
# notes: also called X3 W
# B32: 1D2 SDR mutant HK54P (antibody, IgG1, V domains shown)
# VH: B1 VH with H32K, K54P
# VL: B1 VL
# notes: also called X3 P
# B33: 1D2 SDR mutant HK54M (antibody, IgG1, V domains shown)
# VH: B1 VH with H32K, K54M
# VL: B1 VL
# notes: also called X3 M
# Molecular target: T1, recombinant human GM-CSF (human, UniProt P04141 18-144)
# T1 construct: also called rhGM-CSF; CSF2
# T1 sequence (P04141 18-144 limits assumed): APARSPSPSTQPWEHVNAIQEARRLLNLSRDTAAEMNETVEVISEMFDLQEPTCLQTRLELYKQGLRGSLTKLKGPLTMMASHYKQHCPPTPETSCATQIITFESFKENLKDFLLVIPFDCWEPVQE
# Assay: ELISA on coated rhGM-CSF, UBA relative to 1D2
# From the text: Some of the residues in the CDRs are essential for epitope binding affinity and/or specificity. A number of computational methods were developed to detect these functional residues, generally known as ‘specificity-determining resides’ (SDRs). […] Based on the analysis, 7 amino acid residues in VH and 3 amino acid residues in VL were selected as the SDRs. The residues are labeled X₁ to X₁₀ for the ease of reference. The SDRs on VH are: Heavy chain D31 (HD31) (X₁), HK32 (X₂), HK54(X₃), HR100 (X₄), HY102 (X₅), HY103 (X₆) and HQ105 (X₇). The SDRs on VL are Light chain V32 (LV32) (X₈), LP94 (X₉) and LV95 (X₁₀). The SDRs were subsequently mutated by site-directed mutagenesis to other amino acids to generate mutant VH or VL clones. HEK293 cells were co-transfected with a vector encoding a mutant VH paired with a vector encoding a wild type VL or a vector encoding a wild type VH paired with a vector encoding a mutant VL. The antibody clones were harvested from the culture medium. The binding affinity of each antibody clone to human GM-CSF was tested by ELISA. The ELISA was done according to the following procedures. ELISA plate was coated with 50 μl of rhGM-CSF at 1 μg/mL. The plate was washed with 200 μl PBST for three times, followed by blocking with 1% BSA for 1 hour at room temperature. The antibody clones to be tested were diluted at 1:12000. 100 μl of the diluted antibodies were added to the cell at 100 μl/well. The plate was incubated at room temperature for 1 hour. The plate was then washed and incubated with 1:5000 diluted goat-anti-human secondary antibody conjugated with HRP at room temperature for one hour. The ELISA assay was developed with 100 μl developing buffer containing H₂O₂-Amplx Red per well in the dark for 5 min and the fluorescence intensity was read at Ex.530/Em.590 nm, with cutoff at 570 nm. The Unit Binding Activity (UBA) of each sample was calculated as the fluorescence signal/antibody clone dilution factor.
row,binding affinity % of 1D2 [%],Binder
1,76,B1
2,82,B2
3,133,B3
4,105,B4
5,67,B5
6,68,B6
7,93,B7
8,74,B8
9,76,B9
10,148,B10
11,155,B11
12,100,B12
13,78,B13
14,101,B14
15,117,B15
16,97,B16
17,113,B17

row,binding affinity % of 1D2 [%],Binder
1,74,B18
2,73,B19
3,98,B20
4,60,B21
5,134,B22
6,88,B23
7,76,B24
8,173,B25
9,90,B26
10,90,B27
11,91,B28
12,63,B29
13,74,B30
14,88,B31
15,85,B32
16,106,B33
